Source: patent US20250381284A1 (Eli Lilly, published 2025)

B1: TBP8 (Fab2-VHH) (Fab)
heavy: EVQLVESGGGLVKPGGSLRLSCVASGFTFSSYSMNWVRQAPGKGLEWVSSISSSSSYIYYADSVKGRFTISRDNAKNSLYLQMNSLRAEDTAVYYCARRHGYSNSDAFDTWGQGTLVTVSSASTKGPCVFPLAPSSKSTSGGTAALGCLVKDYFPEPVTVSWNSGALTSGVHTFPAVLQSSGLYSLSSVVTVPSSSLGTQTYICNVNHKPSNTKVDKRVGGGGQGGGGQGGGGQGGGGQGGGGQEVQLLESGGGLVQPGGSLRLSCAASGRYIDETAVAWFRQAPGKGREFVAGIGGGVDITYYADSVKGRFTISRDNSKNTLYLQMNSLRPEDTAVYYCGARPGRPLITSKVADLYPYWGQGTLVTVSSPP
light: DIQMTQSPSAMSASVGDRVTITCRASQGISHYLVWFQQKPGKVPKRLIYAASSLQSGVPSRFSGSGSGTEFTLTISSLQPEDFATYYCLQHNSYPWTFGQGTKVEIKRTVAAPSVFIFPPSDEQLKSGTASVVCLLNNFYPREAKVQWKVDNALQSGNSQESVTEQDSKDSTYSLSSTLTLSKADYEKHKVYACEVTHQGLSSPVTKSFNRGE
B2: TBP5 (Fab1-One Arm Heteromab 2, S124C) (antibody, human IgG4 S228P, kappa, F234A L235A)
heavy 1: EVQLVESGGGLVKPGGSLRLSCVASGFTFSSYSMNWVRQAPGKGLEWVSSISSSSSYIYYADSVKGRFTISRDNAKNSLYLQMNSLRAEDTAVYYCARRHGYSNSDAFDNWGQGTLVTVSSASTKGPCVFPLAPCSRSTSESTAALGCLVKDYFPEPVTVSWNSGALTSGVHTFPAVLQSSGLYSLSSVVTVPSSSLGTKTYTCNVDHKPSNTKVDKRVESKYGPPCPPCPAPEAAGGPSVFLFPPKPKDTLMISRTPEVTCVVVDVSQEDPEVQFNWYVDGVEVHNAKTKPREEQFNSTYRVVSVLTVLHQDWLNGKEYKCKVSNKGLPSSIEKTISKAKGQPREPQVSTLPPSQEEMTKNQVSLMCLVYGFYPSDIAVEWESNGQPENNYKTTPPVLDSDGSFFLYSVLTVDKSRWQEGNVFSCSVMHEALHNHYTQKSLSLSLG
light: DIQMTQSPSAMSASVGDRVTITCRASQGISHYLVWFQQKPGKVPKRLIYAASSLQSGVPSRFSGSGSGTEFTLTISSLQPEDFATYYCLQHNSYPWTFGQGTKVEIKRTVAAPSVFIFPPSDEQLKSGTASVVCLLNNFYPREAKVQWKVDNALQSGNSQESVTEQDSKDSTYSLSSTLTLSKADYEKHKVYACEVTHQGLSSPVTKSFNRGEC
heavy 2: ESKYGPPCPPCPAPEAAGGPSVFLFPPKPKDTLMISRTPEVTCVVVDVSQEDPEVQFNWYVDGVEVHNAKTKPREEQFNSTYRVVSVLTVLHQDWLNGKEYKCKVSNKGLPSSIEKTISKAKGQPREPQVYTLPPSQGDMTKNQVQLTCLVKGFYPSDIAVEWESNGQPENNYKTTPPVLDSDGSFFLASRLTVDKSRWQEGNVFSCSVMHEALHNHYTQKSLSLSLG
notes: One-arm heteromab, hIgG4 PAA, tested as the unconjugated protein; also called OAH2

Biological target: T1, human TfR ECD (human, UniProt P02786 89-760)
T1 construct: extracellular domain; also called Human Transferrin Receptor 1 extracellular domain
Assay: SPR (Biacore 8K), human TfR ECD amine-coupled on CM3 chip, 25 C, 2-state model
Method: Target human TfR ECDs were immobilized on a CM3 chip (Cytiva P/N BR100536) using standard NHS-EDC amine coupling. The TfR binding proteins were prepared at a final concentration of 1.8, 0.6, 0.2, 0.067, 0.022, 0.0074, 0.0025 μM respectively by dilution of stock solution into running buffer.
Binding analysis was performed in a single-cycle or multi-cycle kinetics manner. Each analysis cycle consisted of (1) injection of the lowest to highest concentration proteins over all flow channel at 50 μL/min for 200 seconds followed by return to buffer flow for 900 seconds to monitor dissociation phase; (2) regeneration of chip surfaces with injection of 3M magnesium chloride, for 30 seconds at […] over all cells; and (3) equilibration of chip surfaces with a 50 μL (30-sec) injection of HBS-EP+. Data were processed using standard double-referencing and fit to a 2-state binding model using Biacore 8K Evaluation software, to determine the association rate (kₒₙ, M⁻¹s⁻¹ units), dissociation rate (koff, s⁻¹ units), and Rₘₐₓ (RU units). The equilibrium dissociation constant (KD) is calculated from the relationship KD=koff/kₒₙ, and is in molar units.

| Binder | Kd | koff | kon |
| --- | --- | --- | --- |
| B1 | 18.6 nM | 0.00671 s⁻¹ | 361000 M⁻¹ s⁻¹ |
| B2 | 12.4 nM | – | – |
